This data set deals with the molecule itself. Briefly: cryo-EM structure.

B1: rBAT (SLC3A1), human, N-terminal 10x His tag (natural protein, UniProt Q07837-1 1-685, looked up)
chain: MAEDKSKRDSIEMSMKGCQTNNGFVHNEDILEQTPDPGSSTDNLKHSTRGILGSQEPDFKGVQPYAGMPKEVLFQFSGQARYRIPREILFWLTVASVLVLIAATIAIIALSPKCLDWWQEGPMYQIYPRSFKDSNKDGNGDLKGIQDKLDYITALNIKTVWITSFYKSSLKDFRYGVEDFREVDPIFGTMEDFENLVAAIHDKGLKLIIDFIPNHTSDKHIWFQLSRTRTGKYTDYYIWHDCTHENGKTIPPNNWLSVYGNSSWHFDEVRNQCYFHQFMKEQPDLNFRNPDVQEEIKEILRFWLTKGVDGFSLDAVKFLLEAKHLRDEIQVNKTQIPDTVTQYSELYHDFTTTQVGMHDIVRSFRQTMDQYSTEPGRYRFMGTEAYAESIDRTVMYYGLPFIQEADFPFNNYLSMLDTVSGNSVYEVITSWMENMPEGKWPNWMIGGPDSSRLTSRLGNQYVNVMNMLLFTLPGTPITYYGEEIGMGNIVAANLNESYDINTLRSKSPMQWDNSSNAGFSEASNTWLPTNSDYHTVNVDVQKTQPRSALKLYQDLSLLHANELLLNRGWFCHLRNDSHYVVYTRELDGIDRIFIVVLNFGESTLLNLHNMISGLPAKMRIRLSTNSADKGSKVDTSGIFLDKGEGLIFEHNTKNLLHRQTAFRDRCFVSNRACYSSVLNILYTSC
modifications: five glycosylation sites in the extracellular domain (residues 111 to 685)
For the protein B1, the “stoichiometry N” value came out at 2.

Values taken from paper PMC7159911 (Science Advances, 2020).
